Positions of bridges follow the written chain, without caps; N, C: chain ends. No end group written: not given here. CCA = cyclopropenone-chloroacetamide linker between the two cysteines
Biological target: T1, streptavidin (UniProt P22629 25-183)
T1 construct: streptavidin; Plate-coated in the ELISA; covalently immobilised by amine coupling to a CM5 chip in SPR; Commercial streptavidin is often a truncated core form; source: bought: Pierce streptavidin-coated 96 well plate (Thermo Fisher Scientific) for the phage ELISA
T1 sequence (P22629 25-183): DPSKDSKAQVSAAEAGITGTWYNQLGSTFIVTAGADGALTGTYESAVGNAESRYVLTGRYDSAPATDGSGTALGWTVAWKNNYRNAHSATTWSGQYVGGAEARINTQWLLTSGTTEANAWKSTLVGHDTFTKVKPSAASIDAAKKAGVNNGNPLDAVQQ
Test: SPR; Biacore 8K, 25 °C; streptavidin amine-coupled to a CM5 chip; peptides 4.1 – 9000 nM in HBS-EP+ pH 7.4 at 30 µL/min, 180 s association, 600 s dissociation
Conditions: both partners purified

CPINIFHPPPDC (linker 1-12 via CCA) [synthetic peptide Str1-CCA]
Kd: 0.34 µM
